From publication PMC10781630, “Structural basis of Gabija anti-phage defence and viral immune evasion” (Nature, 2023) come the findings set out here.

The target of one series is T1, GajA E379A;GajB (Bacillus cereus VD045;Bacillus cereus …, UniProt J8H9C1;J8HQ06 1-578;1-494, E379A|).
T1 sequence 1: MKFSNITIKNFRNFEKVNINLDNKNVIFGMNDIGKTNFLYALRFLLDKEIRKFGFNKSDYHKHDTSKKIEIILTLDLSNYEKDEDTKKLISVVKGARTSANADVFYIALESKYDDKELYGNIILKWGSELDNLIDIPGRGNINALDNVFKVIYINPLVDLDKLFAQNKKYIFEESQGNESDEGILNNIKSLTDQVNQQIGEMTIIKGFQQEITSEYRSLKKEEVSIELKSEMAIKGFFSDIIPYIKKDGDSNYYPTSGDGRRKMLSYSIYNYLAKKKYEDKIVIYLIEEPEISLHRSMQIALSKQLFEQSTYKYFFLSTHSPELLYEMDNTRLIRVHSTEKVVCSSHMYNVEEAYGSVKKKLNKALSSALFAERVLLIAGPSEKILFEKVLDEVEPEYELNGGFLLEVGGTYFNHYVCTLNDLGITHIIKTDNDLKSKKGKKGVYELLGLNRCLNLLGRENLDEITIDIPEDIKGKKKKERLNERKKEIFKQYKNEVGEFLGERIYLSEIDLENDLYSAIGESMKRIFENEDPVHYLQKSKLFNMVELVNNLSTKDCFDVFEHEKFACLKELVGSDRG
T1 sequence 2: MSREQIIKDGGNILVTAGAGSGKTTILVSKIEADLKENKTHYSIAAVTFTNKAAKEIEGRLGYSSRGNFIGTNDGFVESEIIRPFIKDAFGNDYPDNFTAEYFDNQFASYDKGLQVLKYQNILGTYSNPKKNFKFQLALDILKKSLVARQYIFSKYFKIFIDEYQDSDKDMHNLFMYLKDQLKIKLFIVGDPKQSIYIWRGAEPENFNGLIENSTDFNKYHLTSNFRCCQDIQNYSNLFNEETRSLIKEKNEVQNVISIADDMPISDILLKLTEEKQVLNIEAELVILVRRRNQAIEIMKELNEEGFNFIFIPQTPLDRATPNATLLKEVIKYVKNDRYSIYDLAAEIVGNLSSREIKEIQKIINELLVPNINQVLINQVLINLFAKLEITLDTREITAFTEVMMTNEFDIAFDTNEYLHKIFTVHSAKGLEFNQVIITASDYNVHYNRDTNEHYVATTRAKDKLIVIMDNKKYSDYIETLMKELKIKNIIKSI
The series is described as follows: EMSA; 5 mM Ca2+. The following applies: protein: recombinant;recombinant; tags: N-terminal 6xHis-SUMO2-5xGS, cleaved by SENP2;none in co-expressed complex; chain copies: 4;4; label: none (ethidium bromide post-stain). (In general: Mobility shift assays separate free from complexed probe on a gel.)

Series [1] addresses Bacillus cereus VD045 GajB, untagged, co-expressed with tagged GajA (Bacillus cereus VD045) (UniProt J8HQ06). As to the kind of experiment: crystal structure; co-expressed and co-purified GajAB, 3.0 Å; hanging drop, 18 °C, 100 mM HEPES-NaOH pH 7.5, 2.4% PEG-400, 2.2 M ammonium sulfate.
The target in series [2] is T2, Bacillus cereus VD045 GajA, co-expressed with GajB, tag removed (subunit of the GajAB complex) (Bacillus cereus VD045, UniProt J8H9C1 2-578).
T2 construct: GajA, Bacillus cereus VD045, IMG ID 2519684552; the 5×GS linker may stay on GajA after SENP2 cleavage; also called BcGajA; source: E. coli BL21(DE3) strains, co-expressed with GajB, purified (Ni-NTA, SUMO2 cleavage by hSENP2, SEC); not shown: 6×His-SUMO2-5×GS, N-terminal, cleaved
T2 sequence: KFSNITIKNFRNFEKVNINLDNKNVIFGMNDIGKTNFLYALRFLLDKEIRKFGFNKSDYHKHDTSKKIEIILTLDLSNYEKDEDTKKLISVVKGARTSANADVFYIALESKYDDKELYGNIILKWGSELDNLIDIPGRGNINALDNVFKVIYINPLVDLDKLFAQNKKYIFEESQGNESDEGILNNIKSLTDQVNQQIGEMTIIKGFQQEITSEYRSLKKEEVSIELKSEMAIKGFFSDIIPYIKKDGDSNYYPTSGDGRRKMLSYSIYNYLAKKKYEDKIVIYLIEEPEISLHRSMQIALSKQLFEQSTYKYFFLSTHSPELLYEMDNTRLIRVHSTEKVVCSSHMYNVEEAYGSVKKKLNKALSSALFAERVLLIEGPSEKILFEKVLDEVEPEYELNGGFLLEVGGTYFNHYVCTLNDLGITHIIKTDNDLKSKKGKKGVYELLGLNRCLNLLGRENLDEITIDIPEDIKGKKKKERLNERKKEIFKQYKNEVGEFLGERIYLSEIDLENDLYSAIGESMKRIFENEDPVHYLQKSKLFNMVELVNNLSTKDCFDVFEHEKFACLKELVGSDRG
The description is as above. Conditions: both partners purified.

Series [3] concerns the molecule itself. The series is described as follows: SEC; 16/600 S200 (Superdex 200); recombinant BcGajA and BcGajB each run alone.

B1: 56-bp scrambled dsDNA (dsDNA)
DNA 1: TTTTTTTTTTTTTTTTTGACATTACATTCAGTTTTTTTTTTTTTTTTTTTTTTTTT
DNA 2: AAAAAAAAAAAAAAAAAAAAAAAAACTGAATGTAATGTCAAAAAAAAAAAAAAAAA
Consider B1, for which the binding result with GajA E379A;GajB is reported as “binds”.

B2: Bacillus cereus VD045 GajB, untagged, co-expressed with tagged GajA (enzyme)
chain: MSREQIIKDGGNILVTAGAGSGKTTILVSKIEADLKENKTHYSIAAVTFTNKAAKEIEGRLGYSSRGNFIGTNDGFVESEIIRPFIKDAFGNDYPDNFTAEYFDNQFASYDKGLQVLKYQNILGTYSNPKKNFKFQLALDILKKSLVARQYIFSKYFKIFIDEYQDSDKDMHNLFMYLKDQLKIKLFIVGDPKQSIYIWRGAEPENFNGLIENSTDFNKYHLTSNFRCCQDIQNYSNLFNEETRSLIKEKNEVQNVISIADDMPISDILLKLTEEKQVLNIEAELVILVRRRNQAIEIMKELNEEGFNFIFIPQTPLDRATPNATLLKEVIKYVKNDRYSIYDLAAEIVGNLSSREIKEIQKIINELLVPNINQVLINQVLINLFAKLEITLDTREITAFTEVMMTNEFDIAFDTNEYLHKIFTVHSAKGLEFNQVIITASDYNVHYNRDTNEHYVATTRAKDKLIVIMDNKKYSDYIETLMKELKIKNIIKSI
notes: GajB, Bacillus cereus VD045, IMG ID 2519684553; also called BcGajB; source: co-purified (Ni-NTA, SEC) or in lysate
For the molecule B2, the figures for the stoichiometry N in series [1] and in series [2] were 2 and 1 GajB per GajA (4:4), respectively.

B3: Bacillus cereus VD045 GajA (Gabija protein A), expressed alone (enzyme)
chain: KFSNITIKNFRNFEKVNINLDNKNVIFGMNDIGKTNFLYALRFLLDKEIRKFGFNKSDYHKHDTSKKIEIILTLDLSNYEKDEDTKKLISVVKGARTSANADVFYIALESKYDDKELYGNIILKWGSELDNLIDIPGRGNINALDNVFKVIYINPLVDLDKLFAQNKKYIFEESQGNESDEGILNNIKSLTDQVNQQIGEMTIIKGFQQEITSEYRSLKKEEVSIELKSEMAIKGFFSDIIPYIKKDGDSNYYPTSGDGRRKMLSYSIYNYLAKKKYEDKIVIYLIEEPEISLHRSMQIALSKQLFEQSTYKYFFLSTHSPELLYEMDNTRLIRVHSTEKVVCSSHMYNVEEAYGSVKKKLNKALSSALFAERVLLIEGPSEKILFEKVLDEVEPEYELNGGFLLEVGGTYFNHYVCTLNDLGITHIIKTDNDLKSKKGKKGVYELLGLNRCLNLLGRENLDEITIDIPEDIKGKKKKERLNERKKEIFKQYKNEVGEFLGERIYLSEIDLENDLYSAIGESMKRIFENEDPVHYLQKSKLFNMVELVNNLSTKDCFDVFEHEKFACLKELVGSDRG
notes: GajA, Bacillus cereus VD045, IMG ID 2519684552; gene codon-optimized and synthesized; the C-terminal 6×His construct is the only GajA-alone construct described; also called BcGajA; GajA alone; source: E. coli BL21(DE3) strains, purified (Ni-NTA, SEC); also co-expressed with Shewanella phage 1/4 Gad1, in lysate for Ni-NTA co-purification; not shown: 6×His, C-terminal, kept
B3: the “stoichiometry N” value in series [3] stood at 4.

For orientation: stoichiometry N means a count of units in the complex or per binding partner.
